Key:
[1] = substrate: O=C(O)CC[C@@H](O)C(=O)O; assay: steady-state oxygen consumption, Clark-type electrode; assay type: biochemical, Pseudomonas aeruginosa; details: E-Zn2+, PMS as co-substrate, 25 mM NaPO4, pH 7.4, 25 °C
Excerpt: (§1) steady-state oxygen consumption, Clark-type electrode on PaD2HGDH (E-Zn^2+ and E-Co^2+)

[2] = substrate: O=C(O)C[C@@H](O)C(=O)O; assay: as above; assay type: biochemical, Pseudomonas aeruginosa; details: E-Zn2+, PMS as co-substrate, 25 mM NaPO4, pH 7.4, 25 °C
Excerpt: as §1

B1: PaD2HGDH (E-Zn^2+ and E-Co^2+) (Pseudomonas aeruginosa PAO1) (protein)
chain: MTREALIESLKPLVEPGKLLDDAASLDAYGKDWTKHFAPAPLAIVFPKSVEQVQAIVRWANQHKVGLVPSGGRTGLSAAAVAANGEVVVAFDYMNRILDFNAFDRTVVCQPGVVTKQLQTFAEENGLYYPVDFASSGSSQIGGNIGTNAGGIKVIRYGMTRNWVAGMKVVTGKGDLLELNKDLIKNATGYDMRQLFIGAEGTLGFVVEATMRLERTPKNLTAMVLGTPDFDSIMPVLHAFQSKLDLTAFEFFSDKALAKVLARGDVPRAFETDCPFYALLEFEATTEEVANEALATFEHCVEQGWVLDGVMSQSEQQLQNLWKLREYISETISHWTPYKNDISVTVSRVPAFLKDIDAIVEANYPDFEVVWFGHIGDGNLHLNILKPENLGKDEFFAKCATVNKWVFETVEKYNGSISAEHGVGMTKRDYLTYTRSETEIAYMKALKAVFDPNGIMNPGKIFAE
notes: FAD enzyme
Km [1]: 0.08 ± 0.01 mM | kcat [1]: 26 ± 1 s⁻¹ | kcat/Km [1]: 330000 ± 43000 M⁻¹ s⁻¹ | Km [2]: 6.0 ± 0.6 mM | kcat [2]: 52 ± 2 s⁻¹ | kcat/Km [2]: 9000 ± 900 M⁻¹ s⁻¹
